Measured values reported in publication PMC3279587.

Key:
Experiment in all cases: EMSA
His-Arx 214-430 [1] = biological target: T1, His-Arx 214-430 (Mus musculus, UniProt O35085 216-432)
GST-Arx 214-430 [2] = biological target: T2, GST-Arx 214-430 (Mus musculus, UniProt O35085 216-432)
Sumo-Arx (full-length) [3] = biological target: T3, Sumo-Arx (full-length) (Mus musculus, UniProt O35085 1-564)
His-Arx 214-430 [4] = biological target: T1, His-Arx 214-430; remark: listed apart in the source
GST-Arx 214-430 [5] = biological target: T2, GST-Arx 214-430; remark: listed apart in the source
GST-Arx 286-430 = GST-Arx 286-430 (Mus musculus, UniProt O35085 288-432)
GST-Arx 286-430, sequence (O35085 288-432): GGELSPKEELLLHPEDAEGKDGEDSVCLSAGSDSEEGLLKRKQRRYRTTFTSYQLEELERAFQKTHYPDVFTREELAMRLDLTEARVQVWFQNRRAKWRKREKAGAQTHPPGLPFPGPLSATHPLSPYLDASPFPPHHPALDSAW

Sumo-Arx (full-length) [6] = biological target: T3, Sumo-Arx (full-length); remark: listed apart in the source
GST-Arx 286-430 L343Q = GST-Arx 286-430 L343Q (Mus musculus, UniProt O35085 288-432, L345Q)
GST-Arx 286-430 L343Q, sequence (O35085 288-432 L345Q): as the sequence (O35085 288-432) above, with L58Q counted along it

T3 sequence (O35085 whole entry): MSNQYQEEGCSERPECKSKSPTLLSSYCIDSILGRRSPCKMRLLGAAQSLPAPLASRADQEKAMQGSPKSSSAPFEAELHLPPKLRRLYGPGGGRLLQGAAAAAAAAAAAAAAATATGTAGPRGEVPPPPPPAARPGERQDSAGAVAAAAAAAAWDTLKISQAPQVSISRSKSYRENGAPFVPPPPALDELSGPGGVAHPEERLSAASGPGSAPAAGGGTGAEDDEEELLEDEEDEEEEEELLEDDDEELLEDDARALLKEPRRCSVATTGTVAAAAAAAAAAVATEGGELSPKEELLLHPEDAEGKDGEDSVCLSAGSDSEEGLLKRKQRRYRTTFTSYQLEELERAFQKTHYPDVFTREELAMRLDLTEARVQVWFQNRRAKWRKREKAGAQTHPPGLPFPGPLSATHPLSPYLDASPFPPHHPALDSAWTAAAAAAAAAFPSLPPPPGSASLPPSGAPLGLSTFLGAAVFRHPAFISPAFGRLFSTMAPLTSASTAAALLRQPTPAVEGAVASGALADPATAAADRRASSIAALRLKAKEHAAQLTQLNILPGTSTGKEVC
T1 sequence (O35085 216-432): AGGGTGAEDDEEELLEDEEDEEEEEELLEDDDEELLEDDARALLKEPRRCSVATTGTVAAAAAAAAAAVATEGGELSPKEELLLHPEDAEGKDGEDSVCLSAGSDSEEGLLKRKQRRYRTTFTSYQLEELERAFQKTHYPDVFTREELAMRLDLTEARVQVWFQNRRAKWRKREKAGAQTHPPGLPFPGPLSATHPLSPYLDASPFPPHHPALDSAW
T2 sequence (O35085 216-432): as above

B1: N11 (dsDNA)
DNA 1: GTCTGGCAGTTAATTCGGCTTAGTAGC
DNA 2: GCTACTAAGCCGAATTAACTGCCAGAC
His-Arx 214-430 [1]
  binding result: no binding
GST-Arx 214-430 [2]
  binding result: no binding
Sumo-Arx (full-length) [3]
  binding signal: 100 % of strongest probe for this protein

B2: N30 (dsDNA)
DNA 1: GTCTGGCCTCTAATTACGCCTAATTGC
DNA 2: GCAATTAGGCGTAATTAGAGGCCAGAC
His-Arx 214-430 [4]
  binding signal: 100 % of strongest probe for this protein
GST-Arx 214-430 [5]
  binding signal: 86 % of strongest probe for this protein
GST-Arx 286-430
  binding signal: 100 % of strongest probe for this protein
Sumo-Arx (full-length) [3]
  binding signal: 38 % of strongest probe for this protein

B3: N25 (dsDNA)
DNA 1: GTCTGGCCATTAATGATATCAATTAGC
DNA 2: GCTAATTGATATCATTAATGGCCAGAC
Sumo-Arx (full-length) [6]
  binding result: no binding
His-Arx 214-430 [4]
  binding signal: 46 % of strongest probe for this protein
GST-Arx 214-430 [5]
  binding signal: 33.6 % of strongest probe for this protein
GST-Arx 286-430
  binding signal: 81.6 % of strongest probe for this protein

B4: N9 (dsDNA)
DNA 1: GTCTGGCTCCTAATTAGTTCGATTAGC
DNA 2: GCTAATCGAACTAATTAGGAGCCAGAC
His-Arx 214-430 [4]
  binding signal: 97 % of strongest probe for this protein
GST-Arx 214-430 [5]
  binding signal: 100 % of strongest probe for this protein
GST-Arx 286-430
  binding signal: 95 % of strongest probe for this protein
Sumo-Arx (full-length) [3]
  binding signal: 17 % of strongest probe for this protein

B5: N2 (dsDNA)
DNA 1: GTCTGGCAATTAATATATTGCATTTGC
DNA 2: GCAAATGCAATATATTAATTGCCAGAC
His-Arx 214-430 [1]
  binding result: no binding
GST-Arx 214-430 [2]
  binding result: no binding
Sumo-Arx (full-length) [6]
  binding result: no binding

B6: Lmo1 (dsDNA)
DNA 1: GTAATGAATTGATTTAATTAACAGGGGAGTCTGA
DNA 2: TCAGACTCCCCTGTTAATTAAATCAATTCATTAC
GST-Arx 286-430 L343Q
  binding result: no binding
